From PMC4785722 (Journal of molecular biology, 2009) come the findings set out here.

This data set deals with the molecule itself. Kind of data set: native MS.

B1: bacteriophage MS2 coat protein dimer (natural protein)
chain: ASNFTQFVLVDNGGTGDVTVAPSNFANGVAEWISSNSRSQAYKVTCSVRQSSAQNRKYTIKVEVPKVATQTVGGVELPVAAWRSYLNMELTIPIFATNSDCELIVKAMQGLLKDGNPIPSAIAANSGIY
Regarding B1, the “stoichiometry N” value is 10 CP2 dimers.
